# Where no end group is shown, it is not given here.
# T1: human hepcidin-25 (human, not fully specified)
# T1 construct: also called human mature hepcidin
# T1 peptide: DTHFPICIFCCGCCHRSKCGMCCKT
# T2: rat hepcidin-25 (rat, UniProt Q99MH3 60-84)
# T2 construct: mature
# T2 peptide (looked up): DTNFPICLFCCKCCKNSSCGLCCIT
# T3: mouse hepcidin-25 (mouse, UniProt Q9EQ21 59-83)
# T3 construct: mature
# T3 peptide (looked up): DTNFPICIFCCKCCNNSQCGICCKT
# T4: cynomolgus monkey hepcidin-25 (cynomolgus monkey, UniProt A7XEI3 60-84, not fully specified)
# T4 construct: mature; also called mature cynomolgous monkey hepcidin
# T4 peptide: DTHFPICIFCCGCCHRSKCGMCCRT
# Tests used:
# human hepcidin-25 [1] = biological target: T1, human hepcidin-25; test: SPR (BIAcore), Fab captured on goat anti-human kappa, human hepcidin-25 injected, 25 C
# Protocol: (§1) Except as noted, all reagents and materials are purchased from BIAcore® AB (Upsala, Sweden). All measurements are performed at 25° C. Samples are dissolved in HBS-EP buffer (150 mM sodium chloride, 3 mM EDTA, 0.05% (w/v) surfactant P-20, and 10 mM HEPES, pH 7.4). To capture Fabs with human kappa, goat-anti-human kappa is immobilized on flow cells 1 to 4 of a CM5 sensor chip at a level of 5000-10000 response units (Rus) using an amine coupling kit. To capture Mabs with mouse IgG1, goat-anti-mouse Fc gamma is immobilized on flow cells 1 to 4 of a CM5 sensor chip at a level of 5000-10000 Rus using an amine coupling kit. To capture antibodies with human IgG4, protein A is immobilized on flow cells 1 to 4 of a CM4 sensor chip at a level of 400-700 Rus using an amine coupling kit. Fabs prepared from E. coli periplasma and Mabs prepared from mammalian cell culture are evaluated using multiple analytical cycles. […] The measurements are obtained at 25° C. and the association and dissociation rates for each cycle are evaluated using a “1:1 with mass transfer” binding model in the BLAevaluation software.
# rat hepcidin-25 = biological target: T2, rat hepcidin-25; test: SPR (BIAcore), 25 C
# Protocol: as §1
# mouse hepcidin-25 = biological target: T3, mouse hepcidin-25; test: SPR (BIAcore), captured Mab, mouse hepcidin-25 injected, 25 C
# Protocol: as §1
# [2] = biological target: T4, cynomolgus monkey hepcidin-25; test: SPR (BIAcore), captured Mab, cynomolgus monkey hepcidin-25 injected, 25 C
# Protocol: as §1
# human hepcidin-25 [3] = biological target: T1, human hepcidin-25; test: SPR (BIAcore), Mab captured on protein A, human hepcidin-25 injected, 25 C
# Protocol: as §1
# [4] = biological target: T4, cynomolgus monkey hepcidin-25; test: SPR (BIAcore), 25 C
# Protocol: as §1
# [5] = biological target: ferroportin C-terminally fused with green fluorescent protein (human), Q9NP59; test: cell-based or functional assay
# Sequence of ferroportin C-terminally fused with green fluorescent protein (human), Q9NP59 (Q9NP59 whole entry, the tested form may be a part): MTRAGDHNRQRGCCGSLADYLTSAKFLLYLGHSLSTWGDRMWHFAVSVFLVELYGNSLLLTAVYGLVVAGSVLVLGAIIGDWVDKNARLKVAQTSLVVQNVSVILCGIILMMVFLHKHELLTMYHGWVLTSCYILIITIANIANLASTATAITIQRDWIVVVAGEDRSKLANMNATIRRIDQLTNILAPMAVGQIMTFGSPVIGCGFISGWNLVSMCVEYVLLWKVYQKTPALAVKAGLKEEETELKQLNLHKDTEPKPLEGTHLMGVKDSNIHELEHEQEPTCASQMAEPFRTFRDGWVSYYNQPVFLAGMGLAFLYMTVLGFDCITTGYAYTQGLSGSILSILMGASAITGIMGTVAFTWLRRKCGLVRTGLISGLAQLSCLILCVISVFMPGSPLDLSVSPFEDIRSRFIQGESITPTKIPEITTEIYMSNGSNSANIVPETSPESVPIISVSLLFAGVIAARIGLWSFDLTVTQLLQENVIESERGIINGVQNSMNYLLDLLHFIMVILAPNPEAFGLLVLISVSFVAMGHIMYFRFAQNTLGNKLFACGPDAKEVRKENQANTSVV
binder,measurement,setting,value
"Fab 3.12 (Fab, V domains shown, Fab with human kappa, from E. coli periplasm; frameworks O2 and VH1-69) VH: QVQLVQSGAEVKKPGSSVKVSCKASGYTFLIYPISWVRQAPGQGLEWMGNFHPYLGVTNYLEKFKGRVTITADKSTSTAYMELSSLRSEDTAVYYCARGGTGSFDYWGQGTTVTVSS VL: DIQMTQSPSSLSASVGDRVTITCSASSRVSSTYLFWYQQKPGKAPKLLIYRTSTLTSGVPSRFSGSGSGTDFTLTISSLQPEDFATYYCQQWSGYPFVFGGGTKVEIK",Kd,human hepcidin-25 [1],0.0883 nM
same,koff,human hepcidin-25 [1],0.000347 s⁻¹
same,kon,human hepcidin-25 [1],3.94e+06 M⁻¹ s⁻¹
"Mab 3.23 (antibody, human IgG4 S228P, kappa, V domains shown) VH: QVQLVQSGAEVKKPGSSVKVSCKASGYTFLIYPISWVRQAPGQGLEWMGNFHPYLGVTNYVEKFKGRVTITADKSTSTAYMELSSLRSEDTAVYYCARGGTGSFDYWGQGTTVTVSS VL: DIQMTQSPSSLSASVGDRVTITCSASSRVSSTYLFWYQQKPGKAPKLLIYRTSPLASGVPSRFSGSGSGTDFTLTISSLQPEDFATYYCQQWSGYPFVFGGGTKVEIKR",binding result,rat hepcidin-25,no binding
same,Kd,mouse hepcidin-25,50.1 nM
same,koff,mouse hepcidin-25,0.192 s⁻¹
same,kon,mouse hepcidin-25,3.83e+06 M⁻¹ s⁻¹
same,Kd,[2],0.0888 nM
same,koff,[2],0.000577 s⁻¹
same,kon,[2],6.51e+06 M⁻¹ s⁻¹
same,Kd,human hepcidin-25 [3],0.0994 nM
same,koff,human hepcidin-25 [3],0.000659 s⁻¹
same,kon,human hepcidin-25 [3],6.2e+06 M⁻¹ s⁻¹
"Mab 3.12 (antibody, human IgG4 S228P, kappa, V domains shown) VH: QVQLVQSGAEVKKPGSSVKVSCKASGYTFLIYPISWVRQAPGQGLEWMGNFHPYLGVTNYLEKFKGRVTITADKSTSTAYMELSSLRSEDTAVYYCARGGTGSFDYWGQGTTVTVSS VL: DIQMTQSPSSLSASVGDRVTITCSASSRVSSTYLFWYQQKPGKAPKLLIYRTSTLTSGVPSRFSGSGSGTDFTLTISSLQPEDFATYYCQQWSGYPFVFGGGTKVEIKR",Kd,human hepcidin-25 [3],0.0599 nM
same,koff,human hepcidin-25 [3],0.00022 s⁻¹
same,kon,human hepcidin-25 [3],3.68e+06 M⁻¹ s⁻¹
"Fab Hu22 (Fab, V domains shown, Fab with human kappa, from E. coli periplasm; frameworks O2 and VH1-69) VH: QVQLVQSGAEVKKPGSSVKVSCKASGYTFTIYPISWVRQAPGQGLEWMGNFHPYLGDTNYNEKFKGRVTITADKSTSTAYMELSSLRSEDTAVYYCARGGTGSFDYWGQGTTVTVSS VL: DIQMTQSPSSLSASVGDRVTITCSASSRVSSTYLFWYQQKPGKAPKLLIYRTSTLASGVPSRFSGSGSGTDFTLTISSLQPEDFATYYCQQWSGYPFTFGGGTKVEIK",Kd,human hepcidin-25 [1],0.647 nM
same,koff,human hepcidin-25 [1],0.00456 s⁻¹
same,kon,human hepcidin-25 [1],7.05e+06 M⁻¹ s⁻¹
"Fab 1.7 (Fab, V domains shown, Fab with human kappa) VH: QVQLVQSGAEVKKPGSSVKVSCKASGYTFTIYPISWVRQAPGQGLEWMGNFHPYLGDTRYVEKFKGRVTITADKSTSTAYMELSSLRSEDTAVYYCARGGTGSFDYWGQGTTVTVSS VL: DIQMTQSPSSLSASVGDRVTITCSASSRVSSTYLFWYQQKPGKAPKLLIYRTSTLVSGVPSRFSGSGSGTDFTLTISSLQPEDFATYYCQQWSGYPFVFGGGTKVEIK",Kd,human hepcidin-25 [1],0.422 nM
same,koff,human hepcidin-25 [1],0.00148 s⁻¹
same,kon,human hepcidin-25 [1],3.8e+06 M⁻¹ s⁻¹
"Fab 3.23 (Fab, V domains shown, Fab with human kappa, from E. coli periplasm; frameworks O2 and VH1-69) VH: QVQLVQSGAEVKKPGSSVKVSCKASGYTFLIYPISWVRQAPGQGLEWMGNFHPYLGVTNYVEKFKGRVTITADKSTSTAYMELSSLRSEDTAVYYCARGGTGSFDYWGQGTTVTVSS VL: DIQMTQSPSSLSASVGDRVTITCSASSRVSSTYLFWYQQKPGKAPKLLIYRTSPLASGVPSRFSGSGSGTDFTLTISSLQPEDFATYYCQQWSGYPFVFGGGTKVEIK",Kd,human hepcidin-25 [1],0.0788 nM
same,koff,human hepcidin-25 [1],0.000278 s⁻¹
same,kon,human hepcidin-25 [1],3.53e+06 M⁻¹ s⁻¹
"Mab Hu22 (antibody, human IgG4 S228P, kappa, V domains shown) VH: QVQLVQSGAEVKKPGSSVKVSCKASGYTFTIYPISWVRQAPGQGLEWMGNFHPYLGDTNYNEKFKGRVTITADKSTSTAYMELSSLRSEDTAVYYCARGGTGSFDYWGQGTTVTVSS VL: DIQMTQSPSSLSASVGDRVTITCSASSRVSSTYLFWYQQKPGKAPKLLIYRTSTLASGVPSRFSGSGSGTDFTLTISSLQPEDFATYYCQQWSGYPFTFGGGTKVEIKR",binding result,rat hepcidin-25,no binding
same,Kd,mouse hepcidin-25,77.6 nM
same,koff,mouse hepcidin-25,0.126 s⁻¹
same,kon,mouse hepcidin-25,1.62e+06 M⁻¹ s⁻¹
same,Kd,[2],0.986 nM
same,koff,[2],0.00816 s⁻¹
same,kon,[2],8.13e+06 M⁻¹ s⁻¹
same,Kd,human hepcidin-25 [3],0.764 nM
same,koff,human hepcidin-25 [3],0.00864 s⁻¹
same,kon,human hepcidin-25 [3],1.09e+07 M⁻¹ s⁻¹
"Mab 3.8 (antibody, human IgG4, V domains shown, Human engineered Mab, human IgG4) VH: QVQLVQSGAEVKKPGSSVKVSCKASGYTFLIYPISWVRQAPGQGLEWMGNFHPYLGVTNYLEKFKGRVTITADKSTSTAYMELSSLRSEDTAVYYCARGGTGSFDYWGQGTTVTVSS VL: DIQMTQSPSSLSASVGDRVTITCSASSRVSSTYLFWYQQKPGKAPKLLIYRTSPLASGVPSRFSGSGSGTDFTLTISSLQPEDFATYYCQQWSGYPFTFGGGTKVEIKR",fold lower KD than for human hepcidin-25,[4],> 10 fold
same,Kd,mouse hepcidin-25,34.6 nM
same,koff,mouse hepcidin-25,0.124 s⁻¹
same,kon,mouse hepcidin-25,3.57e+06 M⁻¹ s⁻¹
same,Kd,[2],0.00933 nM
same,koff,[2],0.00066 s⁻¹
same,kon,[2],7.07e+07 M⁻¹ s⁻¹
same,Kd,human hepcidin-25 [3],0.105 nM
same,koff,human hepcidin-25 [3],0.000768 s⁻¹
same,kon,human hepcidin-25 [3],5.58e+06 M⁻¹ s⁻¹
"Mab L1.5 (antibody, human IgG4 S228P, kappa, V domains shown) VH: QVQLVQSGAEVKKPGSSVKVSCKASGYTFLIYPISWVRQAPGQGLEWMGNFHPYLGVTNYLEKFKGRVTITADKSTSTAYMELSSLRSEDTAVYYCARGGTGSFDYWGQGTTVTVSS VL: DIQMTQSPSSLSASVGDRVTITCSAESRVSSTYLFWYQQKPGKAPKLLIYRTSPLASGVPSRFSGSGSGTDFTLTISSLQPEDFATYYCQQWSGYPFTFGGGTKVEIKR",Kd,human hepcidin-25 [3],0.0342 nM
same,koff,human hepcidin-25 [3],0.000182 s⁻¹
same,kon,human hepcidin-25 [3],5.31e+06 M⁻¹ s⁻¹
DTHFPICIFCCGCCHRSKCGMCCKT (ends and bridges not checked; cysteine pairing not given here) [human hepcidin-25],"hepcidin-induced internalization and degradation of ferroportin (FPN-GFP fluorescence in HEK 293 cells), concentration of maximal effect",[5],0.5 µM

# — patent publication US20090136495A1 (Eli Lilly, published 2009)
